Tests used:
Test in all cases: cell-based or functional assay
[1] = target: Human VEGF (dendritic cell assay) (human) (UniProt P15692)
[2] = target: VEGF (soluble stimulus added to cell cultures)
[3] = target: bFGF (soluble stimulus added to cell cultures)

Human VEGF (dendritic cell assay) (human), sequence (P15692 other isoform, or with tags, fused parts or gaps limits assumed): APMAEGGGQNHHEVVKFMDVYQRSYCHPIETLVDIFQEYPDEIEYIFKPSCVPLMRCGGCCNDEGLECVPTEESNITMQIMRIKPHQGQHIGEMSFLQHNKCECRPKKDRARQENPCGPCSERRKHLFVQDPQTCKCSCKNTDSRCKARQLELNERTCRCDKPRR

Nb-Neg (VHH)
CD86 (MFI) on dendritic cells +VEGF +LPS, VHH 1 µg/mL [1]: 1980 MFI | CD86 (MFI) on dendritic cells +VEGF +LPS, VHH 5 µg/mL [1]: 2050 MFI | CD86 (MFI) on dendritic cells +VEGF +LPS, VHH 10 µg/mL [1]: 2000 MFI | MHCII (MFI) on dendritic cells +VEGF +LPS, VHH 1 µg/mL [1]: 5210 MFI | MHCII (MFI) on dendritic cells +VEGF +LPS, VHH 5 µg/mL [1]: 5140 MFI | MHCII (MFI) on dendritic cells +VEGF +LPS, VHH 10 µg/mL [1]: 4910 MFI | IC50, proliferation of HDMEC cells +VEGF (5 ng/ml) [2]: > 6 µM | PD1 expression (%) in CD8+ cells treated with VEGF, VHH 1 µg/mL [2]: 68% | PD1 expression (%) in CD8+ cells treated with VEGF, VHH 5 µg/mL [2]: 67% | PD1 expression (%) in CD8+ cells treated with VEGF, VHH 10 µg/mL [2]: 65% | average of nodes of the HDMEC network on Matrigel, VEGF 100 ng/mL, VHH 150 nM (nodes per field) [2]: 41 | IC50, bFGF-induced proliferation of 3T3A31 cells [3]: > 250 | IC50, bFGF-induced proliferation of A549 cells [3]: > 250 | IC50, bFGF-induced proliferation of B16F10 cells [3]: > 250 | IC50, bFGF-induced proliferation of NIH3T3 cells [3]: > 250 | IC50, proliferation of HDMEC cells +bFGF (10 ng/ml) [3]: > 6 µM | average of nodes of the HDMEC network on Matrigel, bFGF 10 ng/mL, VHH 150 nM (nodes per field) [3]: 40

From patent US20250326826A1
